In US11202830B2, “Human immunodeficiency virus therapies utilizing N332-glycan-dependent antibodies in subjects with low viral loads” (priority 2013, dated 2021):

Assays:
[1] = test system: SHIV-SF162P3; assay: Antibody infusion in rhesus monkeys chronically infected with SHIV-SF162P3: plasma viral RNA; type: in vivo, rhesus monkeys (Macaca mulatta)
Excerpt: (§1) Groups were balanced for susceptible and resistant TRIM5α alleles (Lim et al., PLoS Pathog. 6: e1000738, 2010; Letvin et al., Sci Transl Med. 3: 81 ra36, 2011). Animals infected by the intrarectal route with our rhesus-derived SHIV-SF162P3 challenge stock for 9 months prior to antibody administration were utilized for the studies. […] 3BNC117 was manufactured by Celldex Therapeutics in CHO cells and purified by chromatography and sterile filtration. All the antibody preparations were endotoxin free. Cocktails of antibodies or single antibodies were administered to monkeys once or twice by the intravenous route at a dose of 10 mg/kg for each antibody. Monkeys were bled up to three times per week for viral loads. All animal studies were approved by the appropriate Institutional Animal Care and Use Committee (IACUC).
To evaluate the therapeutic potential of broad and potent HIV-1-specific antibodies in nonhuman primates, we infused cocktails of antibodies, as well as single antibodies, in chronically SHIV-infected rhesus monkeys.
We next investigated the therapeutic efficacy of a single infusion of the cocktail of three antibodies as well as a combination of only two antibodies. […] Viral rebound occurred in the majority of animals between day 28 and day 84 (FIGS. 2A and 2B) and was associated with declines of serum antibody titers to undetectable levels (FIGS. 2E and 2F).
It is generally believed that a combination of antibodies directed against multiple epitopes will be required for virologic control (Klein et al., Nature. 492: 118-122, 2012; Poignard et al., Immunity. 10: 431-438, 1999; Trkola et al., Nat Med. 11: 615-622, 2005; Diskin et al., J Exp Med. 210:1235-1249, 2013). However, the current extraordinarily potent and broad antibodies have not previously been evaluated in nonhuman primates with intact immune systems.

[2] = test system: SHIV-SF162P3; assay: Sensitivity of SHIV-SF162P3 to 3BNC117; type: cell-based
[3] = test system: SHIV-SF162P3 proviral DNA; assay: Proviral DNA assay (PBMC, lymph node, gastrointestinal mucosa) after antibody infusion; type: in vivo, rhesus monkeys (Macaca mulatta); settings: day 14 after single infusion 10 mg/kg
Excerpt: as §1
Lymph node and gastrointestinal mucosal biopsies were processed as single cell suspensions essentially as previously described (Li et al., J Virol 85: 11007-11015, 2011). Tissue-specific proviral DNA was quantitated as previously reported (Whitney et al., J Virol. 83: 10840-10843, 2009). Total cellular DNA was isolated from 5×10^6 cells using a QIAamp DNA Blood Mini kit (Qiagen). The absolute quantification of viral DNA in each sample was determined by qPCR using primers specific to a conserved region SIVmac239. All samples were directly compared to a linear virus standard and the simultaneous amplification of a fragment of human GAPDH gene. The sensitivity of linear standards was compared against the 3D8 cell line as a reference standard as described (Whitney et al., J Virol. 83: 10840-10843, 2009). All PCR assays were performed with 100 and 200 ng of sample DNA.

[4] = test system: clade C viruses; settings: cited from earlier work

B1: 3BNC117: CD4bs-specific antibody; light chain SEQ ID NO: 257, heavy chain SEQ ID NO: 258 (antibody, listed as Homo sapiens)
heavy: QVQLLQSGAAVTKPGASVRVSCEASGYNIRDYFIHWWRQAPGQGLQWVGWINPKTGQPNNPRQFQGRVSLTRHASWDFDTFSFYMDLKALRSDDTAVYFCARQRSDYWDFDVWGSGTQVTVSS
light: DIQMTQSPSSLSASVGDTVTITCQANGYLNWYQQRRGKAPKLLIYDGSKLERGVPSRFSGRRWGQEYNLTINNLQPEDIATYFCQVYEFVVPGTRLDLKRTVA
With B1 the “transient reduction of plasma viral loads” value ([1]; single infusion 10 mg/kg) was 0.2-1.1 log, the “sensitivity of the SHIV-SF162P3 challenge stock” value ([2]; applicant's rhesus-derived challenge stock) was “largely resistant” and the “sensitivity of the cloned SHIV-SF162P3 pseudovirus” value ([2]; cloned pseudovirus) was “highly sensitive”.

B2: PGT121: N332 glycan-dependent antibody; CDRs SEQ ID NO: 1-6, VH SEQ ID NO: 7, VL SEQ ID NO: 8 (antibody, V domains shown)
VH: QMQLQESGPGLVKPSETLSLTCSVSGASISDSYWSWIRRSPGKGLEWIGYVHKSGDTNYSPSLKSRVNLSLDTSKNQVSLSLVAATAADSGKYYCARTLHGRRIYGIVAFNEWFTYFYMDVWGNGTQVTVSS
VL: SDISVAPGETARISCGEKSLGSRAVQWYQHRAGQAPSLIIYNNQDRPSGIPERFSGSPDSPFGTTATLTITSVEAGDEADYYCHIWDSRVPTKWVFGGGTTLTVL
In the case of B2, the “no evidence of viral rebound for” value ([1]; baseline <3.5 log RNA copies/ml, monkeys 4905 and DN1G) is reported as “over 100 days”, the “time virtually undetectable viral RNA was maintained after treatment” value ([1]; one infusion on day 0, n=3) is reported as “at least 15 days” and the “viral RNA after treatment” value ([1]; one infusion on day 0, n=3) is reported as “virtually undetectable levels of viral RNA within days of treatment”. For the same molecule, the “virologic suppression compared to 10-1074, 3BNC117, or VRC07-523” value ([1]; one infusion on day 0, n=3) was “extremely potent virologic suppression”, the “animals with rapid virologic control to undetectable levels by day 7” value ([1]; single i.v. infusion day 0, 10 mg/kg of each antibody) was 4 of 4 and the “outcome in one animal (monkey DN1G)” value ([1]; single infusion 10 mg/kg) was “long-term virologic control”. For the same molecule, the “reduction of proviral DNA in lymph nodes vs DEN3 control” value ([3]; P=0.05) was 4 fold, the “reduction of proviral DNA in peripheral blood vs DEN3 control” value ([3]; P=0.05) was 6 fold and the “reduction of proviral DNA in gastrointestinal mucosa vs DEN3 control” value ([3]; P=0.1) was 4 fold. The “clade C viruses covered” value [4] was “approximately 70%”.
